In series [1] the target is T1, MBP-GlnR (Mycobacterium smegmatis (SMR5?)) (UniProt A0R4C4).
T1 sequence: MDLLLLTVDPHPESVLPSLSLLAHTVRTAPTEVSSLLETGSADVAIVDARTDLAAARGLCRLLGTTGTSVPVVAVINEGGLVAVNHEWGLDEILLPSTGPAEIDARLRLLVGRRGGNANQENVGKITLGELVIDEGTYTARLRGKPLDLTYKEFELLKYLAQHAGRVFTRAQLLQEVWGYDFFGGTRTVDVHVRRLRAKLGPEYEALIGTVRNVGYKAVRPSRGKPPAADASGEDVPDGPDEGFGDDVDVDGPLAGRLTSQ
The series is described as follows: EMSA. The note with it: GlnR: DIG Gel Shift Kit (Roche) buffer, 6% native PAGE, 0.5x TBE; AmtR: 20 mM Tris-HCl pH 7.9, 25 mM KCl, 1 mM DTT, 5 mM MgCl2, 0.5 mg/ml BSA, 5% glycerol ….

Series [2] deals with T2, MBP-GlnR (Mycobacterium smegmatis, UniProt A0R4C4 1-261).
T2 sequence: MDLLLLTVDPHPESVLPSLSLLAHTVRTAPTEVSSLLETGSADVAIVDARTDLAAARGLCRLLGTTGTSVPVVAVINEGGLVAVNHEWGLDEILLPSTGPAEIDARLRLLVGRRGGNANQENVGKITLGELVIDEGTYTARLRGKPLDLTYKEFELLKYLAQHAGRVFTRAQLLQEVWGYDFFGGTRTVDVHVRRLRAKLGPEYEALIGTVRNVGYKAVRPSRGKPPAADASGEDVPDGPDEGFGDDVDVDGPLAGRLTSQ
The experiment in a line: competition; 1000-fold excess vs fragment 6 probe; GlnR: DIG Gel Shift Kit (Roche) buffer, 6% native PAGE, 0.5x TBE; AmtR: 20 mM Tris-HCl pH 7.9, 25 mM KCl, 1 mM DTT, 5 mM MgCl2, 0.5 mg/ml BSA, 5% glycerol, 2 ug sperm DNA, 25 C 30 min. The note with it: protein: recombinant; (pMal-c2-glnR); chain copies: 2.

Series [3] addresses T2, MBP-GlnR. The series is described as follows: competition; 1000-fold excess vs 220 bp amtB probe; GlnR: DIG Gel Shift Kit (Roche) buffer, 6% native PAGE, 0.5x TBE; AmtR: 20 mM Tris-HCl pH 7.9, 25 mM KCl, 1 mM DTT, 5 mM MgCl2, 0.5 mg/ml BSA, 5% glycerol, 2 ug sperm DNA, 25 C 30 min. As to conditions: protein: recombinant; (pMal-c2-glnR); chain copies: 2; label: digoxigenin when used as probe.

“GTGGCGCGGCAGGGCGGCCACGGGCAGGCCCTGCTGGTCTTCGACACCGGTGACGGCCGCACGCTGCAGACCCATCCGCTTCCCGAGGCCACCGGCTGGCCGGTCGGGGTATCGATCGGCCACGACGGCCGCGTGGTCACCGCGACGAGTGACGGGCAAGTGTATGGCTTCTCACCGGCATGATGCCGGAAGTTTTACAGGGAATTGACGAAATCTCCACAGAAAGTGGTGGGCTTCGTGTGAGGATTTGGCGCGGCAACCGTGCAAGATCAATGAATTTCTGGGGGAAGGCAATAACCA (double strand) [msmeg_1052 upstream]”: the binding result in series [1] is reported as “no binding”.
“GTGTGAACCTCCTTGGGAAGTGCGCCGACGGATCGGCCTCCCGATGAGATTCTGTTGCCGGCGTTTCGCCGGTGCTGCCGTTGCGTTTCCGGAAAGTGAACGCAATCCCGATCACTGTTACGCTCATGTTTCCCGCCGACAAAGCACAGGTCGTTGCACAGCCAACGCCGGCTGTAACGCCCCGCAAACACTCCCGCTGCGGCGCCGCGAACCCGACGTC (double strand) [amtB upstream]”: in series [1], the binding entry is given as “binds”.
For the molecule “TGAGGGTCCTAATCCGTCCCTGAACAGGGAAATTACCGGACCATTTTTTGGTCTGGTCTGAGAATGTCGCCGACGACGTTGTGCTGCGACGCTGGCAATTGTTACCGCGCCCAGATTCGTTGGTCAACTTGGAATTACCTGTACATATGCGGGTTTGTTGCAAACATGTTTCGAAGCTGGGAGCCATGCAACGGCAGCGTAAAAATTCTCGATTTGGTCTGCTCTGGTTCGGCTTTTGGTCCACACTCTTCGACATGCCGGGACTTCCAGCTGACCACGAACTGTTCGCGCGCGCCGCAC (double strand) [msmeg_0781 upstream]”, in series [1], the binding entry is on record as “binds”.
Still for that read-out and setting: with “TGCAGTATCACTACTTTCTTGTTATCCACTTGTCAGGCGTTCGCGGTCTCTGGAGTTTGCTGTGAGGTTTCCTTGAGCCCGAGGCGGGCCCGGATGACGAGGCCGATGACGAACAGTGCCGCGGTGACGATGAACGGCGCCCAGTCGACCCACGGGTCGCCCGTGCGGGGCCACAGGACGTTGACGGTCTCCACGATCACCCACACCAGCGCGAGCCACCCCGCAACGTGTCCGGCACGGCCCAGGAAGGTCGGTTCGGTGGGGTCCCAGGTGCCCCGGAGCTTGCTGATCGCCAACCCC (double strand) [msmeg_6734 upstream]” the entry was “no binding”.
The same measure, in the same setting: with “TTCGGTGTACCTGTGGAAGAACACCGTGGAGAAGGCACAGTCCTTCGACGTCAAGGCAATTCAGGACAACGCCGATGGCGTGAGCTTCGACGCGCCCGAGGGCAAGGTCACCATCGACGGCGAGAACCACCACATCACCAAGACCGCCCGCATCGGTGAGATCCGCCCCGACGGCCTGATCTACACGGTGTGGGAGTCCAAGGGCCCCATCGAGCCGGATCCGTACCTGAAGTCCTACCCGTGGGCCGCAGGGCTGTCGAGCTGATCAGATAGTCACACCGAGGGGGATCTGACAACCGT (double strand) [msmeg_2981 upstream]” the entry was “no binding”.

B1: amtB fragment 6.1 (dsDNA)
DNA 1: TGCGTTCACTTTCCGGAAACGCAAC
DNA 2: GTTGCGTTTCCGGAAAGTGAACGCA
Regarding B1, in the series with MBP-GlnR [2], the binding result is listed as “binds”.

B2: amtB fragment 6 (dsDNA)
DNA 1: TGCGTTCACTTTCCGGAAACGCAACGGCAGCACCGGCGAAACGCCGGCAA
DNA 2: TTGCCGGCGTTTCGCCGGTGCTGCCGTTGCGTTTCCGGAAAGTGAACGCA
Regarding B2, the binding result with MBP-GlnR [3] was “binds”.

For the origin of these results see PMC4222082, “Nitrogen starvation-induced transcriptome alterations and influence of transcription regulator mutants in Mycobacterium smegmatis”.
